Results on one substance are retold here after article PMC7244311.

The assay has as its target talin R3 IVVI domain in the (R3)-(I91)8 construct (mouse). Kind of assay: magnetic tweezers force spectroscopy.

Usually stoichiometry N stands for a count of units in the complex or per binding partner. Regarding vinculin head (domain or fragment), the concentration at half the maximum binding velocity, 9 pN was determined as 90 nM and the stoichiometry N came out at 2.
